Experiments:
[1] = target: human ErbB2 on BT474 human breast tumor cells (human) (UniProt P04626); experiment: Scatchard analysis; 125I-labelled antibody on BT474 cell monolayers, 4 h on ice
[2] = target: human ErbB2 on BT474 human breast tumor cells (human) (UniProt P04626); experiment: cell-based or functional assay

Row | Kd [1] [nM] | % apoptosis of BT474 cell population (Hoechst 33342 cell cycle analysis, 3 days) [2] [%] | proportion of S-phase cells (BT474, 3 days) [2] [%] | Substance
1 | 6.5 | 41.9 | 5.4 | anti-ErbB2 IgG1κ murine monoclonal antibody 4D5
2 |  | 60.5 | 64.9 | anti-ErbB2 IgG1κ murine monoclonal antibody 7C2

Reference: patent EP1106183A2
